Assay [1] concerns the target T1, human DLL3 on cells (human, UniProt Q9NYJ7 27-618).
T1 sequence: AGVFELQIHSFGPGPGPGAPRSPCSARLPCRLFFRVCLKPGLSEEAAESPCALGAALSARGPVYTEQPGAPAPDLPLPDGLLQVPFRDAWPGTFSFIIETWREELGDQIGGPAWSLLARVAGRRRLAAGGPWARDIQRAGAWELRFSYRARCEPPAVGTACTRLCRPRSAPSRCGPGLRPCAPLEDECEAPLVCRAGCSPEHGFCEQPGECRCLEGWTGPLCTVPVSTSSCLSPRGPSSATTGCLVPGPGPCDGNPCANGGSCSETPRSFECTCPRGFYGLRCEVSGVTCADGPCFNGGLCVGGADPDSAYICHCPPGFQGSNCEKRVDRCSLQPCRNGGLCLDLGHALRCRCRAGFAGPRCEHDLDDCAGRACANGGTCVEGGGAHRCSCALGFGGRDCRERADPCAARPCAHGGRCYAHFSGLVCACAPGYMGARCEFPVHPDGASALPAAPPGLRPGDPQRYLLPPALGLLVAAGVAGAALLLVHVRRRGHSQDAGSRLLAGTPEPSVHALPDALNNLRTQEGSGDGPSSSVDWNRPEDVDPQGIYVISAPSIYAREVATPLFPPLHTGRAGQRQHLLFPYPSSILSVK
The experiment in a line: cell-based or functional assay.

In assay [2] the target is T1, human DLL3 on cells. The experiment in a line: flow cytometry, SHP77 cells. The method, then:
(§1) The plates were centrifuged at 300 g for 5 min, and the supernatant was removed. Different concentrations of test antibodies were added at 100 μL/well. The plates were incubated in the dark in a refrigerator at 4° C. for 1 h. After 3 centrifugal washes at 300 g, working concentrations of APC anti-human IgG Fc (BioLegend, 410712) or PE F(ab′)2-goat anti-human IgG (invitrogen, H10104) were added. The plates were incubated in the dark in a refrigerator at 4° C. for 40 min. After 3 centrifugal washes at 300 g, the geometric mean fluorescence intensity was measured on an Invitrogen flow cytometer, and the EC50 values for the binding of the antibodies to DLL3-expressing cells were calculated.
For orientation: A flow cytometer gives signals particle by particle.

Assay [3] addresses T2, human DLL3 (ACRO, DLL3-H52H4) (human, UniProt Q9NYJ7 27-492).
T2 construct: Bought
T2 sequence: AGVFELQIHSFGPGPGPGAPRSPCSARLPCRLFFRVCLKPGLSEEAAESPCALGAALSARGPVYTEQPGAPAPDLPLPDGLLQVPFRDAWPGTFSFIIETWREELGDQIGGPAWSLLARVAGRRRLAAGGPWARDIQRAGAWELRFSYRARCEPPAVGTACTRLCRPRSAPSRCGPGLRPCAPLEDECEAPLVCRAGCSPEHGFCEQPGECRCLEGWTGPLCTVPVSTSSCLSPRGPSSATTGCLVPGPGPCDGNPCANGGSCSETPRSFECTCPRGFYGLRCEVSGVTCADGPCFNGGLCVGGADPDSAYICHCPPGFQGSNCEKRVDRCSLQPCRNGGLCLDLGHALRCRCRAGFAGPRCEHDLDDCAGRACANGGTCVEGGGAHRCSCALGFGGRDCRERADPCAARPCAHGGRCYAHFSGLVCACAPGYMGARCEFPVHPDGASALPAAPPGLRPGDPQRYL
The experiment in a line: SPR Biacore 8K, Ab captured on Protein A. Summed up: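 Antibodies captured on a Protein A chip for 18 s; DLL3 or CD3D&3E antigen flowed 180 s, then 600 s dissociation, with real-time detection. Regeneration used 10 mM glycine-HCl pH 1.5 between cycles. Kinetics were obtained by 1:1 model fitting.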
In general terms: In SPR one partner is held on a chip, and binding of the other changes the refractive index at the surface.

Assay [4] concerns the target T1, human DLL3 on cells. As to the kind of experiment: flow cytometry, DLL3/H82 cells. Set-up: key to Emax: geometric mean fluorescence intensity (flow cytometry). Here is the method: as §1
For assay [5], the target named is hIL5 (human, UniProt P05113 20-134). As to the kind of experiment: ELISA. Background: An ELISA detects its analyte on a solid surface through an enzyme-linked reagent.
In assay [6] the target is hTSLP (human, UniProt Q969D9 29-159). The experiment in a line: ELISA.

In general, EC50 refers to the concentration giving half of the maximal effect. As a reminder, the Kd is a measure of binding affinity in units of concentration. One may read the koff as the first-order rate constant of dissociation. Broadly, the kon is a measure of how fast the partners come together.

Numbering of substitutions follows the chain as printed.

B1: BI-764532 (bispecific antibody, human IgG1, kappa, lambda, L234A L235A)
chain 1: DIQMTQSPSAMSASVGDRVTITCRASQGISNYLVWFQQKPGKAPKRLIYAVSSLYSGVPSRFSGSGSGTEFTLTISSLQPEDFATYYCLQHDSYPYTFGQGTKLEIKRTVAAPSVFIFPPSDEQLKSGTASVVCLLNNFYPREAKVQWKVDNALQSGNSQESVTEQDSKDSTYSLSSTLTLSKADYEKHKVYACEVTHQGLSSPVTKSFNRGECGGGGSEGKSSGSGSESKSTEGKSSGSGSESKSTGGGGSQVQLVQSGAEVKKPGASVKVSCKASGYTFTSYYVHWVRQAPGQGLEWMVIINPGGGTTSYAQKFLGRVTMTRDTSTNTVYMELKSLRSEDTAVYYCARGEAVTGNYFYYGMDVWGQGTTVTVSSASTKGPSVFPLAPSSKSTSGGTAALGCLVKDYFPEPVTVSWNSGALTSGVHTFPAVLQSSGLYSLSSVVTVPSSSLGTQTYICNVNHKPSNTKVDKRVEPKSCDKTHTCPPCPAPEAAGGPSVFLFPPKPKDTLMISRTPEVTCVVVDVSHEDPEVKFNWYVDGVEVHNAKTKPREEQYNSTYRVVSVLTVLHQDWLNGKEYKCKVSNKALPAPIEKTISKAKGQPREPQVYTLPPSREEMTKNQVSLWCLVKGFYPSDIAVEWESNGQPENNYKTTPPVLDSDGSFFLYSKLTVDKSRWQQGNVFSCSVMHEALHNHYTQKSLSLSPG
chain 2: EAVVTQEPSLTVSPGGTVTLTCRSSTGAVTTSNYANWVQEKPGQLPRGLIGGTNKRAPWVPARFSGSLLGGKAALTLSGAQPEDEAEYFCALWYSNLWVFGGGTKLTVLGQPKAAPSVTLFPPSSEELQANKATLVCLISDFYPGAVKVAWKADGSPVNTGVETTTPSKQSNNKYAASSYLSLTPEQWKSHRSYSCQVTHEGSTVEKTVAPAECSGGGGSEGKSSGSGSESKSTEGKSSGSGSESKSTGGGGSEVQLVESGGGLVQPGGSLKLSCAASGFTFNTYAMNWVRQAPGKGLEWVARIRSKYNNYATYYADSVKDRFTISRDDSKNTAYLQMNNLKTEDTAVYYCVRHGNFGNSYVSWFAYWGQGTLVTVSAASTKGPSVFPLAPSSKSTSGGTAALGCLVKDYFPEPVTVSWNSGALTSGVHTFPAVLQSSGLYSLSSVVTVPSSSLGTQTYICNVNHKPSNTKVDKRVEPKSCDKTHTCPPCPAPEAAGGPSVFLFPPKPKDTLMISRTPEVTCVVVDVSHEDPEVKFNWYVDGVEVHNAKTKPREEQYNSTYRVVSVLTVLHQDWLNGKEYKCKVSNKALPAPIEKTISKAKGQPREPQVYTLPPSREEMTKNQVSLSCAVKGFYPSDIAVEWESNGQPENNYKTTPPVLDSDGSFFLVSKLTVDKSRWQQGNVFSCSVMHEALHNRFTQKSLSLSPG
In the case of B1, in assay [1], the “IC50, PBMC killing of SHP77/lucG cells” value is 0.0446 nM and the “Imax (%), PBMC killing of SHP77/lucG cells” value stood at 97%.

B2: hu30L1H5 (antibody, human IgG1, kappa, V domains shown)
VH: EVRLVQSGAEVKKPGASVKVSCKASGYTFTDYYMNWVRQAPGQSLEWMGIINPYTGDTSYNQKFRGRVTLTVDKSASTAYMELSSLRSEDTAVYYCARYHYGPHLEGYFDVWGQGTTVTVSS
VL: DIVMTQSPDSLAVSLGERATINCKASENVGYVSWYQQKPGQPPKLLIYGASNRYTGVPDRFSGSGSGTDFTLTISSLQAEDVAVYYCGQSYSYPLTFGQGTKLEIKR
On to B2, for which, in assay [2], the response was half-maximal at 6.45 nM (EC50) and the Emax was determined as 1540. In assay [3], this molecule gave a Kd of 0.952 nM, a koff of 0.00117 s⁻¹ and a kon of 1.23e+06 M⁻¹ s⁻¹. In assay [4], this molecule gave an EC50 of 0.88 nM and an Emax of 6800.

B3: HJ-3 (bispecific antibody)
chain 1: not shown
chain 2: DIQMTQSPSSVSASVGDRVTITCRASQDIANYLSWYQQKPGKSPKLLIYGTSNLEVGVPSRFSGSRSGTDFTLTISSLQPEDFATYYCLQDKEFPRTFGGGTKVEIKGGGGSSGAPRFLTRPLAFVVSVGKDATLSSQIVGNPTPQVSWEKDKQPVTAGARFRLAQDGDLYRLKILDLQLSDSGQYVSRARNAIGEAFACLGLQVDAEA
chain 3: EVQLVQSGAEVKKPGSSVKVSCKASGYTFSNYLIEWVRQAPGQGLEWIGVIDPGVGDTNYNENFKGRATLTADKSTSTAYIELSSLRSEDTAVYYCAREDNTGTAFDYWGQGTTVTVSSASTKGPSVFPLAPSSKSTSGGTAALGCLVKDYFPEPVTVSWNSGALTSGVHTFPAVLQSSGLYSLSSVVTVPSSSLGTQTYICNVNHKPSNTKVDKKVEPKSCDKTHTCPPCPAPEAAGGPSVFLFPPKPKDTLMISRTPEVTCVVVDVSHEDPEVKFNWYVDGVEVHNAKTKPREEQYNSTYRVVSVLTVLHQDWLNGKEYKCKVSNKALPAPIEKTISKAKGQPREPQVCTLPPSREEMTKNQVSLSCAVKGFYPSDIAVEWESNGQPENNYKTTPPVLDSDGSFFLVSKLTVDKSRWQQGNVFSCSVMHEALHNHYTQKSLSLSPGKDYKDDDDK
chain 4: SIVMTQTPLSLSVTPGQPASISCKASQSVSSDVTWYLQKPGQSPQLLIYYVSEHYTGVPDRFSGSGYGTDFTLKISRVEAEDVGVYYCQQHHRFPLTFGQGTKLEIKRTVAAPSVFIFPPSDEQLKSGTASVVCLLNNFYPREAKVQWKVDNALQSGNSQESVTEQDSKDSTYSLSSTLTLSKADYEKHKVYACEVTHQGLSSPVTKSFNRGEC
B3: the concentration for a half-maximal effect (EC50) in assay [5] was found to be 17.4 nM; in assay [6] it was 3.23 nM.

B4: HJ-11 (bispecific antibody)
chain 1: not shown
chain 2: DIQMTQSPSSVSASVGDRVTITCRASQDIANYLSWYQQKPGKSPKLLIYGTSNLEVGVPSRFSGSRSGTDFTLTISSLQPEDFATYYCLQDKEFPRTFGGGTKVEIKRTVASSGCPRFLTRPKASVVSVGKDATLSCQIVGNPFPQVSWEKDKQPVTAGVRFRLAQDGDLYRLKILDLQLSDSGQYVCRARNAHGEAFACLGLQVDAEA
chain 3: EVQLVQSGAEVKKPGSSVKVSCKASGYTFSNYLIEWVRQAPGQGLEWIGVIDPGVGDTNYNENFKGRATLTADKSTSTAYIELSSLRSEDTAVYYCAREDNTGTAFDYWGQGTTVTVSSASTKGPSVFPLAPSSKSTSGGTAALGCLVKDYFPEPVTVSWNSGALTSGVHTFPAVLQSSGLYSLSSVVTVPSSSLGTQTYICNVNHKPSNTKVDKKVEPKSCDKTHTCPPCPAPEAAGGPSVFLFPPKPKDTLMISRTPEVTCVVVDVSHEDPEVKFNWYVDGVEVHNAKTKPREEQYNSTYRVVSVLTVLHQDWLNGKEYKCKVSNKALPAPIEKTISKAKGQPREPQVCTLPPSREEMTKNQVSLSCAVKGFYPSDIAVEWESNGQPENNYKTTPPVLDSDGSFFLVSKLTVDKSRWQQGNVFSCSVMHEALHNHYTQKSLSLSPGK
chain 4: B3 chain 4
Regarding B4, the EC50 was 9.46 nM in assay [5] and 3 nM in assay [6].

B5: HJ-8 (bispecific antibody)
chain 1: not shown
chain 2: B4 chain 2 with C115A, C137S, C188S
chain 3: B4 chain 3
chain 4: B3 chain 4
In the case of B5, the half-maximal effective concentration (EC50) in assay [5] was 18.7 nM; in assay [6], 3.33 nM.

B6: HJ-10 (bispecific antibody)
chain 1: not shown
chain 2: B4 chain 2 with C115A
chain 3: B4 chain 3
chain 4: B3 chain 4
On to B6, for which the EC50 in assay [5] was determined as 20.8 nM; in assay [6] it was 3.17 nM.

B7: HJ-9 (bispecific antibody)
chain 1: not shown
chain 2: B4 chain 2 with C115A, R121C, C137S, C188S
chain 3: B4 chain 3
chain 4: B3 chain 4
In the case of B7, the results for the concentration giving a half-maximal response (EC50) in assay [5] and in assay [6] were 10.9 nM and 3.18 nM, respectively.

B8: HJ-5 (bispecific antibody)
chain 1: not shown
chain 2: B3 chain 2 with L123K, F125S, T144F, A160V, I194H
chain 3: B4 chain 3
chain 4: B3 chain 4
On to B8, for which the EC50 in assay [5] stood at 16 nM; in assay [6], 2.64 nM.

B9: HJ-6 (bispecific antibody)
chain 1: not shown
chain 2: B3 chain 2 with R121C, L123K, F125S, T144F, A160V, I194H
chain 3: B4 chain 3
chain 4: B3 chain 4
Regarding B9, the half-maximal effective concentration (EC50) was found to be 37 nM in assay [5] and 2.88 nM in assay [6].

B10: HJ-7 (bispecific antibody)
chain 1: not shown
chain 2: B4 chain 2 with R108G, T109G, V110G, A111G, C115A
chain 3: B4 chain 3
chain 4: B3 chain 4
Turning to B10, the EC50 in assay [5] turned out to be 17.7 nM; in assay [6], 2.18 nM.

Source of the values: patent US20250376519A1 (JIANGSU HENGRUI PHARMACEUTICALS, published 2025).
